Results from the DeepSol protein solubility set.

Assay: soluble on expression in E. coli; label from the status in PepcDB or PDB records

Sequence | soluble on expression in E. coli
MSLDRVEEQRITIPDFQKLVEAQTGSEISMDDFYPASSVRPISDFVAAIEGEPQVTFTCHQHCGTATYIFLEDDKIIPITRFIDVDRFFEVLEKGKDEIEEGGIAAKARVIARSAIELPKTLDKSEAPESVDIKRILTSIFKERSYTALGEFHYNTLLISCMHFMDPWNFDIDRVRRCVIHYALPDGRIVPFCTMNSIHRADVERHFAKPLNESKEGHHHHHH | not soluble
MLKSSASAPAKAILFGEHAVVYSKPAIAAAIDRRVTVTVSESSSTHVTIPSLGIRHSSERPSGGILDYIGRCLELYHDASPLDIRVEMEIPAGSGLGSSAALTVALIGPLDRYHGRDHGPGETAARAHRVEVDVQGAASPLDTAISTYGGLVYLDSQRRVRQFEADLGDLVIAHLDYSGETARMVAGVAERFRRFPDIMGRIMDTVESITNTAYRELLRNNTEPLGELMNLNQGLLDSMGVSTRELSMMVYEARNAGAAGSKITGAGGGGSIIAHCPGCVDDVVTALNRNWKAMRAEFSVKGLI | soluble
MGSDKIHHHHHHMRVLVTGANGFVGSRLAGQLGRSDHFSLACAVRTTGTCRFGEEYSIGELGPKTDWSAALRGQDVVVHLAARAHVMDDEAPDPLVEYRRVNVDGTLNLARQAIDAGVRRFVFVSSIKVNGEQTDLGQPFTSDQITAPADAYGISKLEAERGLLALGKESGMEVVIIRPPLVYGPGVKGNFATLIKLVEKGFPLPLGAISNKRTLVSLDNLVDLIQVCIDHPAAANEVFLAGDNSDLSTSELLREIGKAVGKPARLIPVPQGFLMVAARLLGKTDVARRLFGSLQVDISKARHLLGWEPPVSVEEGLRRCFELESRS | not soluble
MGSDKIHHHHHHMPADSVRPTWSLTDIPYATIEKEKIIGNTDWFYLLAGASFVETLSDLYTRNLVEYYQENVGATTWLRQEWEMEEVQHGHALRRYVLFVWPDFDWERAYQGFVTAYAPCCRTELLGPTHALEMASRCVVETGTASFYTMIQAASPEPVLRQIAAHIRADEVHHYKYFYRIFRQYQAAEKNSRWRIGRELWKRVAEAEQEDSYLAIKNAFEVKNPGEKFFIEDFAAFRKRIGGWVDRYYPFDMAIKMLLKPVALPPMLQRAALPLLSHGARRAILG | not soluble
MGSDKIHHHHHHMRHTAVLLISCPDQRGLVAAIADFLLAHRANILHADQHQDAELKLFLMRVEWDLAGFNLDLRDFATAFQPIAERFGMTWRLAESSRKPRMAVFVSKFDHCLADLLYRYQSGELHCELPIILSNHEDTRWLADAYRVPYQHMAVTKESKHETEQIQLAILRDQKIDFIVLARYMQVLSGDFIRHFPNRIINIHHSFLPAFHGAKPYHRAFERGVKLIGATAHYVTETLDDGPIIEQDVARISHRDHIDDLIHKGADLEKVVLSRAVKWHLDNRVLVYANKTVVFD | not soluble
MNKEEQYLLFALSAPMEILNQGCKPAHDSPKMYTGIKEFELSSSWGINNRDDLIQTIYQMTDDGHANDLAGLYLTWHRSSPEEWKALIAGGSERGLIYTQFVAQTAMCCGEGGIKAWDYVRMGFLSRVGVLNKWLTEEESLWLQSRVYVRAHHYYHSWMHYFSAYSLGRLYWQSSQCEDNTSLREALTLYKYDSAGSRMFEELAAGSDRFYATLPWQPLTVQSECPVTLKDVSDL | soluble
MSKVPSDIEIAQAAKMKPVMELARGLGIQEDEVELYGKYKAKISLDVYRRLKDKPDGKLILVTAITPTPAGEGKTTTSVGLTDALARLGKRVMVCLREPSLGPSFGIKGGAAGGGYAQVVPMEDINLHFTGDIHAVTYAHNLLAAMVDNHLQQGNVLNIDPRTITWRRVIDLNDRALRNIVIGLGGKANGVPRETGFDISVASEVMACLCLASDLMDLKERFSRIVVGYTYDGKPVTAGDLEAQGSMALLMKDAIKPNLVQTLENTPAFIHGGPFANIAHGCNSIIATKTALKLADYVVTEAGFGADLGAEKFYDVKCRYAGFKPDATVIVATVRALKMHGGVPKSDLATENLEALREGFANLEKHIENIGKFGVPAVVAINAFPTDTEAELNLLYELCAKAGAEVALSWAKGGEGGLELARKVLQTLESRPSNFHVLYNLDLSIKDKIAKIATEIYGADGVNYTAEADKAIQRYESLGYGNLPVVMAKTQYSFSDDMTKLGRPRNFTITVREVRLSAGGRLIVPITGAIMTMPGLPKRPAACNIDIDADGVITGLF | soluble
GNSPQEEVELKKLKHLEKSVEKIADQLEELNKELTGIQQGFLPKDLQAEALCKLDRRVKATIEQFMKILEEIDTLILPENFKDSRLKRKGLVKKVQAFLAECDTVEQNICQETE | soluble
MAHHHHHHMPPSTYAATAANAEAQGDDVDMHVMTYDQRCHGRSTFVGGEDHLSIEVLVRDFLDVLQYAKTELYSNSNVYVLGHSLGGAVVARALSGNKSALERVSGVLLVDVVEGTAQLSLQHMKSFLKNRPNTFPEVKDAEVWFLRMGGMQNPQGAAVSVPPLLQKNDETGLWQWRTDIRKMESVWDGWFAGLDEAFISLPCAKMLCTANAERLDKTLTVAQMQGKFQLEVIGNGCGHYVMDDATPTVVAKVRRFVKRNEELAQKLQLMNKNLSGQKINTTVPPTRT | not soluble
MYRFCVALTPSTSEDEQVVRKSEKPASKPPTPEVEDCTFSEKNNDQRKIEKETESEESSNLKFPPARPSIRNATNFRRIICISESDSGKEEPVVKKEVLKTNKLRISETKPEYPPELLQLEARLQELRAGRKNKQGRINRKFVAKPCGVVSGETPQRPFLEEMYYFNPQETGTASEIFDMLFPAKDTPNFRPWLDGHFSAPDLQFKQIEKQRQTKLHSYTGTTLQEKKRKKRKKILKSIQEILWLLHFQKHDDFLESTSRLTIKNFSCHFDEHQRLKLLRNNDLSLICNYQIGSENTPIFNQRSTDCMLRPVFIDGLSFMDMLIPISSSLPIISTRSLLEILLNFILDGCQTVIYLPDYYNDTTNQKVDDSTIFQFLCNSKLIQFVDGRSRRAVERQVLLEAEKVHGVFVSSAEEFLTRNAIQCFPVINRYSKRLDEFLICTVFLVNNLPKKILAQDFVEESRVLKPEGSSSAVSSTTVLEESHQKISGAMEDSEDEPADPQTLKQEYLIKEECSEISEDSEEGAIVDVASSSGDLSENRDQKSENEEFEYSPHQLTLEQQTYLISSMAQLSIFHFQRYRQIRVFLMIIKRYVPELLPSFMQKTRMDDVAMAIQDIQNGKDLLYWPIFSKIDN | not soluble
MKVIVVGCTHAGTFAVKQTIADHPDADVTAYEMNDNISFLSCGIALYLGKEIKNNDPRGLFYSSPEELSNLGANVQMRHQVTNVDPETKTIKVKDLITNEEKTEAYDKLIMTTGSKPTVPPIPGIDSSRVYLCKNYNDAKKLFEEAPKAKTITIIGSGYIGAELAEAYSNQNYNVNLIDGHERVLYKYFDKEFTDILAKDYEAHGVNLVLGSKVAAFEEVDDEIITKTLDGKEIKSDIAILCIGFRPNTELLKGKVAMLDNGAIITDEYMHSSNRDIFAAGDSAAVHYNPTNSNAYIPLATNAVRQGRLVGLNLTEDKVKDMGTQSSSGLKLYGRTYVSTGINTALAKANNLKVSEVIIADNYRPEFMLSTDEVLMSLVYDPKTRVILGGALSSMHDVSQSANVLSVCIQNKNTIDDLAMVDMLFQPQFDRPFNYLNILGQAAQAQADKAHK | soluble
MGSDKIHHHHHHMSRMIRFHKFGAADVLRCEEQAEPSPAADEVQIRVEAVGVSWYDVLWRQNLAPSQARLPAGIGHEMAGVVTAVGEGVDDIAVGDRVASFPATSANDHPVYGDVIVLPRTAITRYPNVLTPIEASVHYTPLLIAYFAYVDLARAKAGQTALVTDASHCAGPAFVQLGRALGLKVFAATKEAAQRDYLLGLGADKVIVTEEQDLLLQIGKYTDGRGVDMVLDGMGGPQMSLLGDVLAPRGSLVLYGLQGGNQTPFPACAAFQKNIQFYVHCIGNFTGKPELGISQDQVALQRALRDINQFTADQLLTPQIIKVYPFEQVVEAHRYMDQCPCGGRVVLDMAQH | not soluble
MSLINLVEKEWQEHQKIVQASEILKGQIAKVGELLCECLKKGGKILICGNGGSAADAQHFAAELSGRYKKERKALAGIALTTDTSALSAIGNDYGFEFVFSRQVEALGNEKDVLIGISTSGKSPNVLEALKKAKELNMLCLGLSGKGGGMMNKLCDHNLVVPSDDTARIQEMHILIIHTLCQIIDESF | soluble
MSIDRTSPLKPVSTVQTRETSDTPVQKTRQEKTSAATSASVTLSDAQAKLMQPGVSDINMERVEALKTAIRNGELKMDTGKIADSLIREAQSYLQSK | not soluble
MGSDKIHHHHHHMMKHLTLWHTNDVHSHLEHWPRIFNFLKEKRTAADKENQSALFFDIGDFLDRVHPLTEGTNGLANTDLLNQLPYDVVTFGNNEGTTLAHEDLDKLYEHAVFPVVCCNFYTNKECTEQPDWVKSIVYKEIEQVKIAIIGATAPFRDYYEEMGWGIEEPISSIKKQVAGLDEDTDVVILLSHLGLPSDERIALEIPEVDVILGGHTHHLLETGKIEGNALLAAAGRWGEYIGKVDIELDENNQILTKTAMTFKTEDLPAAPNEANEIQGFFDKGRAELSEKVVAIPGKLAHNWFDDSEIAHILNEAVCEWTGAETFVMNAGIFMTDFEAGIVTDFDIHQMLPHPLNAIALTMSGEELEILIDGIYRKKAELQDIPLRGFGFRGEYFGTVLMERAGFDAENQVALFDNKPIDKTREYRIATHDTFVFAPFFPIVKQIKRKEVYTPELLRDILKWKLKKMYGQEEDK | not soluble
MGGSHHHHHHGMASALETNYLKRCFGNCLAQALAEVAKVRPSDPIEYLAHWLYHYRKTAKAKEENREKKIHLQEEYDSSLKEMEMTEMLKQEEYQIQQNCEKCHKELTSETVSTKKTIFMQEDTNPLEKEALKQEFLPGTSSLIPGMPQQVPPSESAGQIDQNFKMPQEINYKEAFQHEVAHEMPPGSKSPF | not soluble
MSLKGTPGNVPAARTGIEITPAHRAFFHALPKIELHCHLLGAVRHDTFVALAERSGAPIERAEIDAFYARGEKPVGVLHVLRALDRYLLTQPDDLRRIAYEYLEDAAAYNVRHAEFFWNPTGTVHVSGIAYADAQAAIVTGIRDAARDFGIGARLIPSIDREQDPDEAVAIVEWMKANRADEVAGLGIDYRENDRPPELFWKAYRNARAAGFRTTAHAGEFGMPWRNVETAVDLLQVDRVDHGYTIVDNPELCARYAERGIVFTVVPTNSYYLRTLPPEQWAERHPMRKMPGLGLKIHPNTDDPTLHKVNPSEAWELMFSHFGFTVAELKQFMLNGIDGAWVDDTTKAAWRAAWAPEFDVLAATLAAGEGHHHHHH | soluble
MGSDKIHHHHHHACSQKQPIQATVTPSDPVVGEEIFFSDSTSGARIWYWEFGNNETSTQRSGYHRFKQKGVYKIRLTVNGNLERYFDVRVKEKTNAEDLHLVHIIAPKEAIQGENIIFRGEGHDEQWRWEFGETGMIDSREKTALYAYTEPGEYEVLLNTENTRYPIRHRINILPYYSENDSTDVMVLIGLDIKEKLQNIADGKPFNVNYNYVVDKYFNNNPNTLVIVNNNKYNDFYSYCQGLHHIGRKETIIQNVIVETEDEESGYITQITVMQIEKKK | not soluble
MAHHHHHHMSNPWNAKLVEELLFRQYEKGEDVSMLLPPPPALSVDQYLKEYEQSTKVLFAYVRNGPANALTPQNINNPRMYGGTPTKGSSSMQRTGNQGGATCATTSSSSACGVDSKAQMQRHPRGLDGSQSAAPSLPLTAGDAAAGQGSMAPPEHIRKRIEWPATVPTNSALKSNSRSRVANLTTKRVAAQERVDPDLIFMQNPEELPLHTIFAKYPKAVESIAALRGGSGDWREDTFTEEEEILYKRELRYSHMGPSQCGFFRSNLIQR | not soluble
MSLQEKQLKTIQNKIASWIKEIESAFIDELFSKIGPSKMLRSKLMLALLNEKTDAILLDKAFNLCAIVEMIQTASLLHDDVIDKAAMRRKLPSINALFGNFNAVMLGDVFYSKAFFELSKMGESIAKSLSNAVLRLSRGEIEDVFVGGSFNSDKQKYWRILEDKTAHFIEASLKSMAILLNKDAKMYADFGLNFGMAFQIIDDLLDITQDAKTLGKPNFSDFKEGKTTLPYLLLYEKLNQRDQGLLISYFKQDSHEIIEWTKEKFKQYGTIEETLKIAQVYSKKALEAIKGENNLILEKLAQDVIYRTFEGHHHHHH | soluble
